For the test, the target named is sdcb1_human SDCBP (UniProt O00560).
Sequence of UniProt O00560 (O00560 whole entry): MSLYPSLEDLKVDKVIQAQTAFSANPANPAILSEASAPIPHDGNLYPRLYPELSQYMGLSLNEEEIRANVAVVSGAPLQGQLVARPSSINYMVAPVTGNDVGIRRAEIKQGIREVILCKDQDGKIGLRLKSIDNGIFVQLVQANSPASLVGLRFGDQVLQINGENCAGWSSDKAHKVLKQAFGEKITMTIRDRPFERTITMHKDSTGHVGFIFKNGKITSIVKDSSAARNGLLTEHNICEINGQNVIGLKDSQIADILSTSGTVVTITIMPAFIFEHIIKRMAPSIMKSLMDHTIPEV

Consider “Frizzled-7 (Homo sapiens) (from UniProt O75084) T572A”, for which the “effect of a mutation on the interaction” value is recorded as “disrupting interaction”.

Consider “Frizzled-7 (Homo sapiens) (from UniProt O75084) V574A”, for which the “effect of a mutation on the interaction” value is on record as “decreasing interaction”. Take “Frizzled-7 (Homo sapiens) (from UniProt O75084) T572A;V574A”: the “effect of a mutation on the interaction” value is listed as “disrupting interaction”.

The values above are taken from IntAct's records for PubMed 18256285.
